Reference: patent publication US7928289B2, “Method for production of transgenic plants with increased pathogenic resistance by altering the content and/or activity of actin-depolymerising factors” (BASF Plant Science GmbH, priority 2004, dated 2011)

B1: HvADF3 (S^6A): Constitutively active variant of barley ADF3 (SEQ ID No. 2) with S6A substitution, overexpressed from vector pHvADF3-CA (protein)
chain: MANASAGAGIHDDCKLRFVELKSKRMHRFITYRLENQKEVIVDQTGQRDATYEDFTKTLPENDCRFAVFDFDFTTPEDVPKSRIFYIFWSPDTAKVRSKMTYASNEKFKRTLDGIQIEMQATDPSEISLDVIKERAH
modifications: Hordeum vulgare
B2: AtADF3: ADF3 from Arabidopsis thaliana (SEQ ID No. 11), expressed constitutively (pSUN2) or pathogen-inducibly (Lo123) in transgenic Arabidopsis plants (protein, listed as Arabidopsis thaliana)
chain: MANAASGMAVHDDCKLKFMELKTKRTHRFIIYKIEELQKQVIVEKIGEPGQTHEDLAASLPADECRYAIFDFDFVSSEGVPRSRIFFVAWSPDTARVRSKMIYASSKDRFKRELDGIQVELQATDPTEMDLDVFKSRAN

Key:
peroxisomes = experiment: Movement of GFP-labeled peroxisomes in transfected epidermal leaf cells; assay type: cell-based, Hordeum vulgare; conditions: epidermal leaf cells from barley; co-expression with GFP having peroxisomal targeting sequence
Source text: In order to further examine the HvADF3 function in barley, the effect of the overexpression or the silencing of HvADF3 on the mobility of peroxisomes was examined. Peroxisomes are known to be moved along actin filaments (Mathur (2002) Plant Physiology, Vol. 128, 1031-1045). Herein, barley peroxisomes were visualized by co-transformation of a plasmid expressing a variant of the Green Fluorescent Protein (GFP) with a peroxisomal targeting sequence (Mathur et al., vide supra). Herein, epidermal leaf cells from barley were transfected either only with the GFP construct or together with the already mentioned mutant of HvADF3 (S^6A). The expression of said mutant corresponds to an increase of the content and the activity of ADF3.
With the aid of the PCR method, a so-called peroxisome target sequence (PTS) was fused C-terminally to the green fluorescent protein. Said sequence consists of the three amino acids serine (S), […], and leucine (L) (Jedd, G. et al. (2002) Plant Cell Physiol 43, 384-392).
The GFP peroxisome target sequence vector (pGFPTS, FIG. 6) has a maize polyubiquitin promoter (pUbi), the coding gene for the green fluorescent protein including the peroxisome target sequence (GFPTS), and a nopaline synthase transcription terminator sequence (NOS).
The overexpression of HvADF3 was performed as described in the above. […]

actin cytoskeleton = experiment: Phalloidine staining of the actin cytoskeleton in transfected epidermal leaf cells; assay type: cell-based, Hordeum vulgare; conditions: BCIngridmlo5; cells labeled with dsRED
Source text: For this experiment, epidermal leaf cells from barley were transfected with a plasmid expressing dsRED (RFP) in order to label the transfected cells. In addition in some experiments, a constitutively active variant of HvADF3 bearing an S^6A amino acid substitution rendering the protein inaccessible for N-terminal phosphorylation was expressed. A corresponding mutant was described for ADF3 from maize (Smertenko et al., Plant J 14, 187-193).
As described in the above, said vectors were then used for transfecting the plants.
The dsRED vector (pUbi-RFP-Nos, FIG. 4) has a maize polyubiquitin promoter (pUbi), the coding gene for the red fluorescent protein (Discosoma sp. fluorescent protein FP583; RFP), and a nopaline synthase transcription termination sequence (NOS). The GenBank accession number for RFP is AF168419.
The experiments were conducted in BCIngridmlo5.

[1] = test system: Blumeria graminis f. sp. hordei (Bgh); experiment: Fungal development on epidermal leaf cells co-transfected with GUS reporter and HvADF3(S^6A); assay type: cell-based, Hordeum vulgare; conditions: BCIngridmlo5; Bgh conidia four hours after bombardment
Protocol: Therefore, those cells were examined, which had been transfected with HvADF3 overexpression constructs.
For said experiments, epidermal leaf cells from barley were co-transfected with a plasmid for the GUS reporter together with a plasmid coding for HvADF3(S^6A), as was described in the above. Four hours after bombardment, the leaves were infected with Bgh conidia, and 22 hours after inoculation the leaves were stained with respect to GUS activity and fungal structures. FIGS. 8a and b show the fungal development in a transfected epidermal leaf cell. […] The expression of HvADF3(S^6A) corresponds to an overexpression of HvADF3. The experiments were performed in BCIngridmlo5 plants.

Peronospora parasitica = experiment: Infection of transgenic Arabidopsis plants with Peronospora parasitica; assay type: in vivo, Arabidopsis thaliana; conditions: constitutive or pathogen-inducible expression
Protocol: (§1) The transformation is conducted according to the floral dip method (modified according to Clough and Bent, 1998). After being harvested, the seeds are sterilized with chlorine gas overnight and subsequently laid out on selection plates. The addition of antibiotics is conducted in dependency on the plant resistance marker. In case of pSUN2, BASTA is added; in case of Lo123, kanamycin is added. After sterilization, the seeds are laid out on the selection plates and are stored for stratification for two days at 4° C. in a cooling chamber. Subsequently, they are further observed under short-day conditions. After about 10 days, the first selection of the plants can be performed. Non-transgenic plants will lose color during selection, while transgenic plants having the corresponding resistance gene remain green. Those plants remaining green after the first selection are selected a second time under same conditions. Those plants still maintaining their color during the second selection can then be transferred to soil. The plants are selfed and the resulting T2 seed populations are subjected to phytopathological analysis. […]
5 to 8-week-old plants are sprayed with a conidia spore suspension (about 10^6 spores/ml). […] These symptoms are quantified and tested for significance.

Erysiphe cichoracearum = experiment: Infection of transgenic Arabidopsis plants with Erysiphe cichoracearum; assay type: in vivo, Arabidopsis thaliana; conditions: constitutive or pathogen-inducible expression
Protocol: as §1
The biotrophic mildew fungus is cultivated on Arabidopsis thaliana plants. […] These symptoms are quantified and tested for significance.

Molecule	peroxisomal movement (peroxisomes)	phalloidine-stainable actin fibers in bombarded cells (actin cytoskeleton)	fungal development in transfected cells [1]	resistance to Peronospora parasitica as compared to non-transgenic wild-type plants (Peronospora parasitica)	resistance to Erysiphe cichoracearum as compared to non-transgenic wild-type plants (Erysiphe cichoracearum)
B1	considerably reduced	stainable actin fibers could only be detected in the neighboring cells, but not in the bombarded cells	the fungus can only form very short hyphae	–	–
B2	–	–	–	significantly increased resistance	significantly increased resistance
